The source of these data is patent US20240254227A1 (Alector, published 2024).

The target in experiment [1] is T1, huCD300LB-DAP12 fusion constitutively expressed on 293 Freestyle (Freestyle HEK) cells (human).
T1 construct: also called Human CD300LB-DAP12 chimera
The experiment can be described thus: flow cytometry, stable Freestyle HEK cells. How it is done:
(§1) Other members of the human CD300 family share sequence homology with human CD300LB. Thus, counter screens against binding of the anti-CD300LB antibodies to huCD300A, huCD300C, huCD300LD, huCD300E, huCD300LF, and huCD300G by stable overexpression in Freestyle HEK cells (generation of which is described above) were performed as follows. Cells were counted and labeled with 200 nM CFSE, 500 nM VioBlue, or a combination of the two to discriminate between CD300LB, Parental cells, and the other CD300 family members. Cells were washed thoroughly with PBS containing 2% fetal bovine serum then resuspended at a total of 240,000 cells per well. Hybridoma supernatants (100 L) or purified antibodies at various concentrations were added and incubated for one hour before the cells were washed twice again and stained with an APC-labeled anti-human or anti-mouse secondary antibody. Cells were then analyzed using a BD FACSCanto II. Anti-CD300LB antibodies were analyzed for specific binding to human CD300LB by FlowJo software by gating on live cells, then the APC geometric mean fluorescence intensity (gMFI) calculated for each labeled population. The results are shown in […]
(§2) Freestyle HEK cells were transfected with huCD300A, huCD300C, huCD300D, huCD300E, and huCD300G separately. Then, five stable cell lines from these transfections were pooled; the combined cells are herein known as CD300A/C/D/E/G. Freestyle HEK cells were also transfected with huCD300LB and huCD300F. All transfected cells were then tested for binding of anti-CD300LB antibodies of the present disclosure.
(Flow cytometry measures light scatter and fluorescence of single cells or particles in a stream.)
Target sequence in this assay (chain, as listed by the source limits assumed): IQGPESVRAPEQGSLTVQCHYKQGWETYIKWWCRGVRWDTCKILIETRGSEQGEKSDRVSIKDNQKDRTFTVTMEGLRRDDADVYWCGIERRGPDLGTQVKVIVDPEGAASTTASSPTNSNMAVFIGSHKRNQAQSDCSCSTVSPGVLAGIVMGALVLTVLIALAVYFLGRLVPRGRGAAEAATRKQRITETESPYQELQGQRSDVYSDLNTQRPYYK

Experiment [2] concerns the target T2, huCD300F constitutively expressed on 293 Freestyle (Freestyle HEK) cells (human, UniProt Q8TDQ1 20-290).
T2 construct: also called huCD300LF; Human CD300F
T2 sequence: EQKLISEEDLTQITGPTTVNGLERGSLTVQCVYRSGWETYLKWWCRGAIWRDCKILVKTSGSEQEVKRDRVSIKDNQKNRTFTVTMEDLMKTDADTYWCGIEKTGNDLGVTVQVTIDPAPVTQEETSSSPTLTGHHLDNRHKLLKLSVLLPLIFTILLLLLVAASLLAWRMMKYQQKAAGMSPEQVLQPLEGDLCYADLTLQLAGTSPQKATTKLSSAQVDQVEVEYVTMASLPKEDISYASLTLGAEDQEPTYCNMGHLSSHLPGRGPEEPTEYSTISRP
Put plainly: flow cytometry, stable Freestyle HEK cells. Here is the method:
as §1, §2

The target of experiment [3] is T3, human CD300LB transiently expressed on HEK293 cells (human, UniProt A8K4G0 18-201).
T3 construct: CD300LB expression constructs'; also called huCD300LB HEK293
T3 sequence: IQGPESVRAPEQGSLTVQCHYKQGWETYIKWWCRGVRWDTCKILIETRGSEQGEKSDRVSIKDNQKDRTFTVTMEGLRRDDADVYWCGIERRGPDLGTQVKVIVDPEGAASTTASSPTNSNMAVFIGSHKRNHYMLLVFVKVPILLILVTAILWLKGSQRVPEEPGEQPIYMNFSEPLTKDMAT
Put plainly: flow cytometry, transfected HEK293, 10 ug/mL, isotype subtracted. Here is the method: In addition, supernatants or purified antibodies were tested for species crossreactivity by comparing the binding of human, mouse, and cynomolgous monkey CD300LB expressing cell lines. HEK293 were transfected with […] of human, mouse, and cyno CD300LB expression constructs using the Mirus system in 10 cm tissue culture dishes. Cells were then incubated for 24 hours in complete medium. Cells were harvested by incubation in TrypLE Express, then washed with PBS and labeled with 200 nM CFSE, 500 nM VioBlue, or a combination of the two to discriminate between human, mouse, and cyno CD300LB expressing cells. Cells were washed thoroughly with PBS containing 2% fetal bovine serum then resuspended at a total of 240,000 cells per well. Purified antibodies at 10 μg/mL were added and incubated for one hour before the cells were washed again and stained with an APC-labeled anti-human or anti-mouse secondary. Cells were then analyzed using a BD FACSCanto II. Antibodies were analyzed for specific binding to human, mouse, or cyno CD300LB by FlowJo software by gating on live cells, then the APC gMFI calculated for each labeled population minus the gMFI of the isotype control.

For experiment [4], the target named is T4, recombinant human CD300LB overexpressed on Jurkat cells (human, UniProt A8K4G0 18-201).
T4 construct: also called huCD300LB; huCD300LB-expressing Jurkat cells
T4 sequence: T3 sequence
Put plainly: flow cytometry on Jurkat cells overexpressing huCD300LB, apparent KD (Drake & Klakamp fit). How it is done:
Purified anti-CD300LB antibodies of the present disclosure were evaluated for their binding affinity to either Jurkat cells overexpressing recombinant huCD300LB or BaF/3 cells overexpressing recombinant muCD300LB. Binding of anti-CD300LB antibodies to the cells was determined as follows. Cells were harvested, washed, and labeled with propidium iodide for viability discrimination. After washing the cells with PBS, 1×10⁵ cells were aliquoted per well in 96-well U-bottom plates and incubated with 100 μL of purified anti-CD300LB antibody at various concentrations in FACS buffer (PBS+2% FBS). After this primary incubation, the supernatant was removed via centrifugation, the cells washed twice with 150 μL of ice-cold FACS buffer, and then incubated with the appropriate secondary antibody on ice for 30 minutes. Following the secondary antibody incubation, the cells were again washed twice with ice-cold FACS buffer and resuspended in a final volume of 200 L FACS buffer. Flow cytometry analysis was then performed using the FACSCanto system (BD Biosciences).
To determine affinity, antibodies at increasing concentrations were used to stain Jurkat cells overexpressing huCD300LB and geometric MFI values measured by the flow cytometer were analyzed on Prism (Graphpad) software.

The target in experiment [5] is T5, human CD300LB on primary human monocytes (human, UniProt A8K4G0 18-201).
T5 construct: Endogenous protein on primary cells; that the target is CD300LB is inferred from the antibodies being anti-CD300LB antibodies; also called Monocyte donor 1281; Monocyte donor 1282
T5 sequence: T3 sequence
Put plainly: flow cytometry, primary human monocytes donor 1281, 10 ug/mL antibody, isotype control subtracted. Here is the method: (§3) Human monocytes from various donors were isolated from whole blood using RosetteSep Human Monocyte Enrichment Cocktail (Stemcell technologies) and Ficoll centrifugation per manufacturer protocols. After lysing red blood cells with ACK lysing buffer, monocytes were resuspended in complete media (RPMI, 10% FBS, Pen/Strep, L-glutamine, HEPES, non-essential amino acid, Sodium pyruvate). To obtain macrophages from these isolated monocytes, 100 ng/ml human M-CSF and 8% v/v human serum were added to the cells for 5-7 days. Cells were counted on the day of the experiment and plated at 100,000 cells per well in a round-bottom 96 well plate. Cells were incubated with TruStain Fc block and 10 μg/mL antibody for 1 hour on ice before washing with 250 μL ice cold PBS twice. Cells were then incubated with the appropriate APC-conjugated secondary antibodies for 20 minutes in the dark on ice. Finally, cells were washed twice with ice cold FACS buffer and then resuspended in 100 μL FACS buffer containing 1% propidium iodide. Samples were immediately analyzed using a BD FACSCanto flow cytometer. The gMFI was calculated using FlowJo software minus the gMFI of the appropriate isotype control.

Experiment [6] has as its target T5, human CD300LB on primary human monocytes. The experiment can be described thus: flow cytometry, primary human monocytes donor 1282, 10 ug/mL antibody, isotype control subtracted. Here is the method: as §3
The target is the same in experiment [7]. Put plainly: flow cytometry, primary human monocytes donor 1283, 10 ug/mL antibody, isotype control subtracted. Here is the method:
as §3

Experiment [8] shares this target. Put plainly: flow cytometry, primary human monocytes donor 1284, 10 ug/mL antibody, isotype control subtracted. Here is the method:
as §3

In experiment [9] the target is T6, human CD300LB on primary human macrophages (human, UniProt A8K4G0 18-201).
T6 sequence: T3 sequence
The experiment can be described thus: flow cytometry, primary human macrophages donor 1275, 10 ug/mL antibody, isotype control subtracted. How it is done: as §3

Experiment [10] deals with T6, human CD300LB on primary human …. The experiment can be described thus: flow cytometry, primary human macrophages donor 1277, 10 ug/mL antibody, isotype control subtracted. Here is the method: as §3
Experiment [11] has the same target. Put plainly: flow cytometry, primary human macrophages donor 1278, 10 ug/mL antibody, isotype control subtracted. How it is done: as §3
The target in experiment [12] is T7, murine CD300LB stably expressed on Jurkat cells (mouse, UniProt Q3U497 18-209).
T7 construct: also called muCD300LB; mouse CD300LB
T7 sequence: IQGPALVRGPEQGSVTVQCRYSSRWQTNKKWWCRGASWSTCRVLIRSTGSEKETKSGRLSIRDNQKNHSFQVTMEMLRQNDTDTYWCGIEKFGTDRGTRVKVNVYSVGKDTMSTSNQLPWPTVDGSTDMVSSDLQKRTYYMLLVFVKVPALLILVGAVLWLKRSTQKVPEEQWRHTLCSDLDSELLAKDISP
The experiment can be described thus: flow cytometry, stable Jurkat cells.

Experiment [13] concerns the target T4, recombinant human CD300LB overexpressed …. Put plainly: flow cytometry, stable Jurkat cells, supernatant or 10 ug/mL, isotype subtracted. Here is the method:
(§4) Purified anti-CD300LB antibodies of the present disclosure were also evaluated for species cross-reactivity to mouse and human CD300LB stably expressed in Jurkat cells (generation of which is described above). Cells were counted and labeled with 200 nM CFSE, 500 nM VioBlue, or a combination of the two to discriminate between human CD300LB, Parental cells and mouse CD300LB. Cells were washed thoroughly with PBS containing 2% fetal bovine serum then resuspended at a total of 240,000 cells per well. Hybridoma supernatants (100 L) or purified antibodies at 10 μg/mL were added and incubated for one hour before the cells were washed again and stained with an APC-labeled anti-human or anti-mouse secondary. Cells were then analyzed using a BD FACSCanto II. Antibodies were analyzed for binding to mouse or human CD300LB by FlowJo software by gating on live cells, then the APC gMFI calculated for each labeled population by subtraction of the gMFI of the appropriate isotype control.

Experiment [14] addresses T7, murine CD300LB stably expressed on …. The description is as above. Here is the method:
as §4

For experiment [15], the target named is T1, huCD300LB-DAP12 fusion constitutively …. The experiment can be described thus: flow cytometry, geometric mean (APC-A), FreeStyle HEK cells expressing huCD300LB. How it is done: as §1

Changes are numbered by the printed parent chain.

B1: anti-CD300LB antibody CD-09 (antibody, V domains shown)
VH: QVQLVQSGAEVKKPGASVKVSCKASGYTFTTYAVHWVRQAPGQGLEWMGIINPNSGGTNYAQKFQGRVTMTRDTSTSTVYMELSSLRSEDTAVYYCARDIVPMNNFYNYYYGMDVWGQGTTVTVSS
VL: DIQMTQSPSSLSASVGDRVTITCRASQSISSYLNWYQQKPGKAPKLLIYATSTLQSGVPSRFSGSGSGTDFTLTISSLQPEDFATYYCQQSYRIPYTFGQGTKVEIK
For the molecule B1, the gMFI in experiment [1] worked out at 37900 gMFI; in experiment [2] it was 28 gMFI; in experiment [3], 445 gMFI; in experiment [5] it was 1370 gMFI; in experiment [6], 3070 gMFI; in [7], 2580 gMFI. Moreover, the gMFI in [8] came out at 1040 gMFI; in experiment [9], 19700 gMFI; in experiment [10], 15700 gMFI; in [11], 13300 gMFI. Further, the binding result in [2] is given as “no binding”. Also, the Kd in experiment [4] is 109 nM.

B2: anti-CD300LB antibody CD-08 (antibody, V domains shown)
VH: EVQLLESGGGLVQPGGSLRLSCAASGFTFSNAWMSWVRQAPGKGLEWVSVISGSGGRTYYADSVKGRFTISRDNSKNTLYLQMNSLRAEDTAVYYCARDGTTVAPKGMDVWGQGTTVTVSS
VL: B1 VL with R24Q, S28D, S30N, S31N, L33V, T51A, T53N, R93S, I94P, V104L
In the case of B2, the gMFI in [1] came out at 56800 gMFI; in [2], 212 gMFI; in [3], 774 gMFI; in experiment [5], 2970 gMFI; in experiment [6], 4470 gMFI; in experiment [7] it was 1920 gMFI. Moreover, the gMFI came to 1400 gMFI in experiment [8], 3580 gMFI in experiment [9], 2800 gMFI in experiment [10] and 135000 gMFI in experiment [11]. Further, the binding result in experiment [2] is “no binding”. For the same molecule, the Kd in experiment [4] amounted to 45 nM.

B3: anti-CD300LB antibody CD-04 (antibody, V domains shown)
VH: QVQLQQSGAELVRPGASVTLSCRASGYTFTDFEMHWVKQTPLHGLEWIGAIAPETGGTAYNQKFKGKAILTADKSSSTAYVELRSLTSEDSAVYFCTRLGGMDYWGQGTSVTVSS
VL: DVVMTQTPLSLPVSLGDQASISCRSSQTLVHNNGNTYLYWYLQKPGQSPKLLIYQVSNRFFGVPDRFSGSGSGTDFTLKISRVEAEDLGLYFCSQSTHVPWTFGGGTKLEIK
Take B3: the figures for the binding result in experiment [12] and in experiment [15] were “no binding (tested: 10 ug/mL)” and “no binding”, respectively. Besides, the gMFI amounted to 190 gMFI in [1], 207 gMFI in experiment [3], 193 gMFI in [13] and 18 gMFI in experiment [14]. The Kd in experiment [4] was determined as 32 nM.
